In the supplement of paper PMC10567573:

B1: KRT18 (parent)
chain: RAQYDELARKNREELDKYWSQQIE
B2: ADD1 (parent)
chain: LRHSFQKQQREKTRWLNSGRGDEA

Variants of: B1
Assay: protein stability index of a GFP-peptide fusion (GPS, HEK-293T) (PSI 1-6); higher = more stable
Details: c terminus: a fixed tail appended
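Note: lentivirally expressed fusions sorted by FACS into six bins by GFP to DsRed ratio, PSI derived from sequencing read proportions per bin multiplied by bin number.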

Protein stability index: each site, then its substitutions
L7: C 3.42, K 3.93, T 3.68, A 3.7, N 4.22, M 2.38, F 1.27, E 2.75, Q 3.78, G 3.19
K17: M 3.51, E 3.94, D 4.21, T 3.21, G 3.57, N 3.02, S 3.67, Q 2.96
R12: H 3.64, D 4.17, F 4.13, K 4.37, V 4.34, N 3.94, P 4.08, T 4.19
Q22: N 3.31, S 3.82, K 4.27, F 2.75, I 3.37, H 4.67, M 2.67, V 3.08, C 2.31, A 3.44, W 4, P 3.83
E14: G 3.83, D 3.94, H 3.29, W 3.89, M 2.92, N 3.04, V 3.62, F 2.5, L 2.97, C 3.42
Q3: A 2.68, I 2.44, P 2.94, W 2.07, D 3.54, S 2.21, E 3.19
D5: A 2.74, Y 3.28, I 2.98, M 2.75, Q 3.38, H 3.29, P 3.73, N 3.17, R 2.79, G 3.09, E 2.86, K 2.84
A2: V 3.11, C 2.48, R 3.24, T 2.52, K 2.65, I 2.5, Y 2.72, D 3.18, P 3.13
R1: W 2.12, N 2.99, P 3.08, F 2.47, K 2.29, L 2.79, M 2.97, T 3.02
I23: C 3.45, A 3.97, N 4.39, T 4.69, E 5.1, R 4.68, P 4.96, D 5.28, S 4.96, G 4.41, L 2.21
E13: N 3.58, C 2.81, Q 2.91, I 2.05, V 2.07, G 3.92, H 3.54, W 2.65, M 2.82, L 3.07, P 2.99, S 3.96, A 3.41
A8: D 4.2, M 2.66, I 3.17, Q 3.75, S 3.5, T 2.33, K 3.85, L 2.34, H 2.17, V 2.6
R9: F 3.88, N 3.46, H 3.4, P 4.28, T 3.53, S 3.66, K 3.52, W 2.62
E6: L 2.85, H 3.41, F 3.15, I 3.05, W 2.42, T 3.36, N 3.66, D 3.27, A 3.3, P 4.07, M 2.99
Q21: I 3.05, Y 3.08, R 3.81, N 3.71, C 4, S 3.4, L 2.74, E 2.88, H 3.41, T 3.76, P 4.25, M 2.98, K 3.06, W 3.28, G 3.58, V 3.17, D 2.88
W19: A 4.73, D 4.56, M 5.01, G 5.07, N 4.54, K 4.41, Y 4.58, H 4.85, C 4.91, Q 5.13, E 5.28
N11: H 3.75, D 4.23, A 4, G 3.71, P 4.02, V 2.75, F 1.94, Q 3.87, E 4.54, R 3.39, W 2.63
Y4: A 3.84, R 4, N 3.68, F 3.52, I 3.47, S 3.74, T 3.91, L 2.25, V 4, W 2.48
S20: Q 2.17, I 2.31, M 2.56, F 3.04, D 4.29, C 2.63, W 2.6, T 2.79, P 3.85
K10: F 3.34, T 3.5, N 3.79, G 4.05, M 4.04, Q 3.14, H 4.16, W 2.81, A 2.97
Y18: L 4.6, V 4.33, D 5.12, P 4.34, M 4.36, R 4.09, F 3.5, N 4.92, E 5.17, C 3.95, I 3.97, H 4.06, Q 4.77
D16: M 2.74, P 3.63, W 2.21, H 3.35
E24: I 3.12, F 3.16, L 2.23, S 3.27, T 3.36, H 3.72, R 2.3, V 3.01, C 3.05
L15: S 4.19, T 4.1, W 1.95, D 4.9, K 3.87, Q 4.71, P 4.6, E 3.98, N 3.57, A 4.37, H 4.25

Variants of: B2
Assay: as above
Details: c terminus: a fixed tail appended

Protein stability index of substitutions, site by site:
N17: H 2.54, K 3.65, G 3.82
E11: D 4.47, I 2.21, L 2.28, R 3.65, N 2.57, Q 2.87, W 2.56, V 2.88
K7: H 3.53, N 4.21, C 1.8, A 3.95
R2: M 3.85
T13: K 3.91, F 3.29, S 3.36, Q 3.2, W 2.58
G21: E 3.99, D 4.42, M 3.4, T 3.33, I 3.42
S4: D 3.88, Q 3.72, V 3.15, I 2.82, T 3.57
Q8: T 3.93
L1: Y 3.75, I 3.92
H3: G 3.93
Q6: F 3.21, V 3.56, P 4.11, D 4.37
D22: N 3.69
F5: L 3.83, R 3.43, Y 3.71, A 4.44, M 3.8
R20: G 3.71
S18: T 3.51, W 3.51, V 3.53, G 3.92, A 4.02, Q 3.55
W15: I 4.27, D 4.42, L 4.38, E 4.81, Y 4.17
R10: F 3.92, M 3.44
L16: C 4.06, S 4.22, G 4, Y 3.42
A24: S 3.9, T 3.48
G19: N 3.6, I 2.73, A 3.82, T 3.37
R14: I 3.02, H 3.98, F 3.52, L 3.02, D 3.52, T 3.15, Y 2.76, C 2.68, Q 4.3
K12: D 3.96, C 3.79, Q 3.85, G 4.09, A 4.1
Q9: I 3.18, M 3.84, Y 3.01
E23: F 2.28, P 3.75, T 3.48, W 2.77, V 3.47, K 2.73, Q 3.2
